Source: the supplement of paper PMC10567573

B1: USP39 (parent)
chain: FVEKNPTIVNFPITNVDLREYLSE
B2: CLCN6 (parent)
chain: ILRSQLVTLLVRGVCYSESQSSAS

Variants of: B1
Test: protein stability index of a GFP-peptide fusion (GPS, HEK-293T) (PSI 1-6); higher = more stable
Details: c terminus: a fixed tail appended
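Further: lentivirally expressed fusions sorted by FACS into six bins by GFP to DsRed ratio, PSI derived from sequencing read proportions per bin multiplied by bin number.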

Protein stability index of substitutions, site by site:
S23: R 2.02; G 1.34; M 2; L 1.11; D 1.84; I 3.78; C 2.41; H 2.76; A 1.57; Y 4.51; N 1.65; E 1.83; T 1.06; P 2.13; F 2.12; V 1.77; Q 1.78; K 2.59
E20: V 2.28; T 1.46; C 1.68; I 2.01; K 2.56; Y 2.88; R 1.41; P 2.02; G 1.13; H 2.01; Q 2.08; N 1.55; D 1.81; F 1.71; W 1.77; M 2.41; S 2.5; A 1.46; L 1.39
Y21: A 2.35; I 2.04; L 2.27; Q 1.87; R 1.57; E 2.21; D 1.71; G 2.44; M 1.49; V 1.52; C 1.6; S 2.27; F 2.04; T 1.86; P 1.62; H 2.84; K 1.21; W 1.47; N 1.9
L22: E 1.75; N 1.47; F 2.1; A 2.47; G 2.12; Q 2.44; V 1.83; K 2.09; T 2.03; S 2.49; I 1.93; W 1.74; P 1.84; M 2.07; C 1.12; Y 1.9; H 1.5; R 1.66; D 1.64
E24: S 1.88; R 1.53; G 2.14; W 1.93; N 2.24; T 1.78; Y 1.84; M 1.59; C 2.11; P 2.1; D 1.37; A 2.19; H 2.5; Q 2.04; L 2.27; K 1.84; F 2.02; I 1.64
R19: W 2.13; S 1.31; T 1.63; N 1.99; V 1.83; Y 2.1; Q 2.35; M 1.65; P 2.08

Variants of: B2
Test: as above
Details: c terminus: a fixed tail appended

Protein stability index: each site, then its substitutions
Y16: K 1.32; D 2.09; L 3.45; P 3.6; C 2.31; R 3.34; T 3.87; H 2.77; S 2.22; A 3.1; E 1.94; W 2.61; N 2.37; V 2.94; I 2.94
Q5: A 1.97; W 1.44; V 2.98; S 3.4; M 3.17; D 2.31; K 2.79; F 2.23; E 3.8; P 2.72; N 3.29; C 3.81; T 2.06; Y 3.81
T8: G 2.01; S 2.29; H 2.18; K 2.88; V 2.62; E 3.03; M 2.8; R 2.81; N 2.15; C 3.51; Y 2.21; L 1.83; P 2.12; W 2.28
V11: T 2.8; D 2.02; Y 2.19; S 1.78; A 2.77; L 4.2; C 2.1; P 2.1; Q 2; R 2.01; E 1.54; M 3.46; K 2; N 3.1; H 2.78; W 2.92; G 2.39
G13: R 3.25; Q 3.06; V 3.06; S 2.89; W 1.7; L 2.53; D 3.12; P 2.69; N 3.53; F 4.5; I 2.7; E 1.72; H 3.18
R3: P 2.36; Y 2.72; V 2.67; A 2.34; W 3.08; C 3.38; I 3.78; K 3.85; M 2.62; Q 3.3
S4: H 3.41; I 3.85; V 2.58; N 2.54; D 2.21; M 2.78; K 2.19; W 3.61; L 2.56; E 3.85; Y 2.3; T 2.68
I1: L 3.03; C 2.09; G 2.2; D 3.23; M 3.86; A 3.79; S 3.03; T 2.87; P 2.04; W 3.34; R 2.09; H 1.82; F 3.23; K 3.63
L6: H 2.17; Q 1.66; P 2.04; C 3.02; A 2.2; D 1.55; N 1.76; K 2.08; M 1.98; Y 2.02; W 3.18; F 2.41; S 1.42; R 2.67; T 2; E 1.88; I 2.86; V 1.64; G 2.86
L10: S 1.31; P 2.52; Y 2.23; C 2.21; W 3.87; R 2.14; Q 1.72; K 2.05; G 1.92; H 2.07; A 1.07; M 2.93; E 2.53; I 2.14; V 1.92; N 2.49; D 1.8; T 2.46
L2: R 1.95; G 2.64; P 2.01; I 3.02; K 2.42; M 3.88; Y 3.62; S 3.23; H 1.3; E 1.93; C 3.49; D 1.66; Q 2.62; F 2.44; N 2.06
V14: H 2.01; I 2.79; M 1.59; K 2.87; E 1.47; F 2.46; G 2.1; W 2.82; Q 3.26; S 2.76; N 1.57; R 2.67; T 3.29
R12: P 2.67; H 4.29; S 3.78; T 2.56; L 3.03; I 2.68; D 2; K 3.37; N 1.67; V 3.56; A 2.38; W 2.29
L9: M 2.5; R 1.6; Q 1.69; P 2.21; H 1.39; S 1.6; C 3.61; A 3.4; N 1.59; T 2.92; G 1.8; F 4.09; D 1.77; E 1.94; W 2.83; K 1.99
C15: K 1.13; A 3.2; R 3.44; H 1.73; N 1.57; I 3.23; D 1.89; F 4.46; Y 4.15; G 3.11; P 2.23; V 5.04
V7: G 1.75; H 2.63; N 1.99; C 2.66; P 1.98; R 2.57; M 2.25; D 2.45; Y 3.04; W 1.96; I 2.83; E 2.37; Q 2.43; K 2.23; L 3.31; S 2.18; T 2.46; A 2.81
